We go through 1 sequence from patent US5472841.

For this data set, the target named is T1, Human neutrophil elastase (Homo sapiens) (UniProt P08246).
T1 sequence: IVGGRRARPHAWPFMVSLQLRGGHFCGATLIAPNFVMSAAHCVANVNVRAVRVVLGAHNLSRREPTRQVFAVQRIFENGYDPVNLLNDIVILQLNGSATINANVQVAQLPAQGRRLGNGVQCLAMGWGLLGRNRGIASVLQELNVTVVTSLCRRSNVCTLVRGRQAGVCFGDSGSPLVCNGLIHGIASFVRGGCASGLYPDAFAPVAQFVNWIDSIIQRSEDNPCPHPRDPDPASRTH
Put plainly: filter. To be noted: apparent Kd.

Turning to “CCCCTGCAGGTGATTTTGCTCAAGTNNNNNNNNNNNNNNNNNNNNNNNNNNNNNNNNNNNNNNNNAGTATCGCTAATCAGGCGGATC [random ssDNA pool]”, the Kd was 250 nM.
